# Assays:
# [1] = biological target: Xmad1 (Xenopus laevis (endogenous in egg extracts)); experiment: co-IP
# [2] = biological target: Xmad2 (Xenopus laevis (endogenous in egg extracts)); experiment: co-IP
Substance,percent of Xmad2 bound with Xmad1 [1] [%],percent of Xmad1 removed by immunodepletion of Xmad2 [2] [%]
Xmad2 (natural protein),40,
Xmad1 (natural protein),,> 95
